The source of these data is the supplement of paper PMC12042874.

± gives the uncertainty stated by the source.

The data set can be described thus: amyloid nucleation score (Sup35N fusion, yeast selection) (log enrichment); library NNK3; higher = more nucleation; inactive = no reads after selection. The method, boiled down: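 The nucleation score, computed with DiMSum, is the log enrichment of output over input reads, centred on the mode score of non-aggregating sequences. Sequences with under 100 input reads were dropped. Reads were generated by Illumina sequencing of plasmid inserts from psi-negative yeast with Sup35N fused to peptides of 20 random codons, induced with 100 μM copper sulfate for 24 hours and grown 7 days at 30°C on medium lacking adenine and uracil.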
Consider DYQTHLCSEGLALLMRKGSR, for which the amyloid nucleation score result was “inactive”.

DYVIVCAMEKLNRTVLWAQG: the amyloid nucleation score result was “inactive”.

For the substance DYVRKWS, the amyloid nucleation score result was “inactive”.

For EADPYIPKSVFGVGFNGHVV, the amyloid nucleation score result was “inactive”.

Take EAGSPALRR: the amyloid nucleation score turned out to be 0.078 ± 0.7.

In the case of EAGSVSYWFVATRPLKRACP, the amyloid nucleation score result is “inactive”.

For EAHGIQLMMGLFAFR, the amyloid nucleation score is 1.11 ± 0.15.

For the substance EALTLTARR, the amyloid nucleation score result was “inactive”.

For the substance EATWMSLRYV, the amyloid nucleation score entry is “inactive”.

For the substance EAVKWPHMILPHCTHMWIYW, the amyloid nucleation score entry was “inactive”.

Take ECAYWMILLGLDYNGHPNRP: the amyloid nucleation score result is “inactive”.

Consider ECENMHDTKDLGLTDGVYII, for which the amyloid nucleation score result is “inactive”.

Substance ECGFKKR returned an amyloid nucleation score of -0.383 ± 1.3.

On to ECRYRTRR, for which the amyloid nucleation score result is “inactive”.

ECTDFYGTGTFCFGSWRLSY: the amyloid nucleation score was found to be 1.76 ± 0.064.

Turning to ECYTSCVMIYIIHCYKNLRL, the amyloid nucleation score entry is “inactive”.

Substance EDFPRALVVRSYQWIYIQNV registered an amyloid nucleation score of 1.24 ± 0.12.

On to EFGPVTPGSEPQALLCTRRL, for which the amyloid nucleation score result is “inactive”.

As to EFGWQL, the amyloid nucleation score result was “inactive”.

EFKIALRRPINERAESLVTR: the amyloid nucleation score entry was “inactive”.

As to EFKQSSWY, the amyloid nucleation score result is “inactive”.

Take EFRIKRNR: the amyloid nucleation score result was “inactive”.

As to EFVFECLYGTLLGRALMLRP, the amyloid nucleation score result was “inactive”.

As to EFWLISFQSQLSFYCDFRYD, the amyloid nucleation score result was “inactive”.

Regarding EGDYECGNTWQNGGSTSEDP, the amyloid nucleation score entry is “inactive”.

On to EGFWMNAPGGRISYSINWIA, for which the amyloid nucleation score result is “inactive”.

Substance EGIGDVCCKTPEYRSFGWMR yielded an amyloid nucleation score of -1.13 ± 2.4.

Take EHRLVDCDVWVR: the amyloid nucleation score was 2.82 ± 0.077.

Take EHYFSTSIVGCGFFIWWCWG: the amyloid nucleation score result is “inactive”.

Take EICWKLIGRMRC: the amyloid nucleation score entry is “inactive”.

On to EIKSDICFGFVYTTS, for which the amyloid nucleation score entry was “inactive”.

As to EIRTRPKRSVVGSRVSMGVS, the amyloid nucleation score entry is “inactive”.

EIVRRSSVISCHRT: the amyloid nucleation score entry was “inactive”.

Turning to EIVVYFEFLCYFVLEVLKSL, the amyloid nucleation score result was “inactive”.

For EKDNKLLVICMLV, the amyloid nucleation score result is “inactive”.

Regarding EKFNCNVFIANWAK, the amyloid nucleation score was 0.358 ± 0.36.

As to EKVSYFSNNVVLIVVINRVC, the amyloid nucleation score entry is “inactive”.

ELFSVNKCDLALNTCLTVPG: the amyloid nucleation score turned out to be 2.6 ± 0.061.

Turning to ELGPYLNSLVAHFSRLY, the amyloid nucleation score entry is “inactive”.

On to ELIDKLVT, for which the amyloid nucleation score result is “inactive”.

Turning to ELIWAEGYRKSCKLGPVIS, the amyloid nucleation score result was “inactive”.

For ELLCSYTYKIGFQWFC, the amyloid nucleation score result was “inactive”.

ELLVVFEESIVINFLDANIW yielded an amyloid nucleation score of 0.674 ± 0.2.

ELNMAVDAVYCTGSVHKIVF returned an amyloid nucleation score of 1.36 ± 0.13.

As to ELPLSSCNRCGECYGLAIVA, the amyloid nucleation score result was “inactive”.

As for ELRQFSP, the amyloid nucleation score result is “inactive”.

In the case of ELSFPL, the amyloid nucleation score entry is “inactive”.

For the substance ELSTWLAYYVRLGYWCLIMM, the amyloid nucleation score entry was “inactive”.

With ELSYDRSKYSINSLWLGIPI, the amyloid nucleation score entry is “inactive”.

Consider ELVVLYLYRRASSGWS, for which the amyloid nucleation score result was “inactive”.

Take EMFYSVCFIYRIMFT: the amyloid nucleation score came out at 1.25 ± 0.089.

EMLFPSRICLCIHDVILPRV: the amyloid nucleation score entry was “inactive”.

In the case of EMLYTLIIVYLVNMYFCTQS, the amyloid nucleation score result is “inactive”.

For the substance ENALRLRQVGQILGLNCRIV, the amyloid nucleation score entry was “inactive”.

ENERGKKMSLGYGLELAGTG: the amyloid nucleation score result was “inactive”.

For ENSEW, the amyloid nucleation score result is “inactive”.

In the case of ENVLVVRMDRVLY, the amyloid nucleation score entry is “inactive”.

The substance ENYLKVCVASVCPWLLHVRS gave an amyloid nucleation score of -0.079 ± 0.48.

In the case of EPGDRQARKSFRLSFWAQEV, the amyloid nucleation score was found to be 0.422 ± 0.21.

For EPRRLRITCEYTVNRRLSDE, the amyloid nucleation score entry is “inactive”.

EPSGNM: the amyloid nucleation score entry was “inactive”.

For EQLKTRNRKVWV, the amyloid nucleation score entry is “inactive”.

With EQYRSTTGLESL, the amyloid nucleation score is -0.2 ± 0.96.

Turning to ERQFMFYKVTVVIPTSHLCS, the amyloid nucleation score result was “inactive”.

For ERSLFAYMYNNGR, the amyloid nucleation score entry is “inactive”.

In the case of ERSQKWVNF, the amyloid nucleation score result is “inactive”.

On to ERVRRTV, for which the amyloid nucleation score entry is “inactive”.

Substance ESASSYFLY registered an amyloid nucleation score of 0.583 ± 0.24.

With ESMAFLRSSSLHKFVWTMYR, the amyloid nucleation score entry is “inactive”.

On to ESMLIS, for which the amyloid nucleation score result was “inactive”.

In the case of ESMSHRGAPGRERVLRSNM, the amyloid nucleation score result was “inactive”.

As to ESQISEN, the amyloid nucleation score entry was “inactive”.

For ESSFSGLYYDSAM, the amyloid nucleation score result was “inactive”.

Turning to ETSVTAHHLGIGVLLRFQQ, the amyloid nucleation score result is “inactive”.

As for EVGYKTVFPVGIMNDIVMWM, the amyloid nucleation score result was “inactive”.

As for EVKDAWIMSYSLNYWQRLYM, the amyloid nucleation score entry is “inactive”.

Substance EVKFYWKYKGV yielded an amyloid nucleation score of 0.561 ± 0.16.

Take EVSSTDL: the amyloid nucleation score entry was “inactive”.

EVTSYVVFSFLIFTSMFHCK displayed an amyloid nucleation score of -0.464 ± 0.36.

In the case of EVVAAYHPATDTSDRERKAL, the amyloid nucleation score entry was “inactive”.

EVVLFKYVVL yielded an amyloid nucleation score of 0.848 ± 0.19.

EVYYPDVNLLEPGAVKLGRH: the amyloid nucleation score entry was “inactive”.

Regarding EWCSMYILSC, the amyloid nucleation score result was “inactive”.

On to EWFSMIVSHFNI, for which the amyloid nucleation score entry is “inactive”.

For the substance EWISLQVKNLTVSTVMLCLE, the amyloid nucleation score entry was “inactive”.

In the case of EWKVLLPNLLYPSYYAQNR, the amyloid nucleation score entry was “inactive”.

Regarding EYESMI, the amyloid nucleation score result is “inactive”.

Regarding EYHDALEYVVGDKAIFWSGD, the amyloid nucleation score result was “inactive”.

Take FADYLMKPCRMCLLRDPVYS: the amyloid nucleation score entry was “inactive”.

With FAFAEERADLWSN, the amyloid nucleation score entry was “inactive”.

In turn, FAFLWCLDWLNRKRIMSRVE came in with an amyloid nucleation score of -1.34 ± 2.5.

Consider FAGCLGHPLERYVHLAWV, for which the amyloid nucleation score result was “inactive”.

On to FAHEVLYSANT, for which the amyloid nucleation score result is “inactive”.

On to FAILNFGMSSIIFVCLTCAN, for which the amyloid nucleation score entry is “inactive”.

Turning to FALCFKRQIGRVSRVVCHVY, the amyloid nucleation score entry is “inactive”.

As for FAMETLNSSTFRCYHQFYGF, the amyloid nucleation score result was “inactive”.

As to FANFSILS, the amyloid nucleation score entry was “inactive”.

With FASRIWSSTITSCHLLSGSL, the amyloid nucleation score result is “inactive”.

On to FASSDC, for which the amyloid nucleation score result is “inactive”.

Turning to FAYQFRLVDTSLSDF, the amyloid nucleation score result is “inactive”.

FAYVLFATFS yielded an amyloid nucleation score of -0.353 ± 1.2.

FCDGPGTKY: the amyloid nucleation score entry is “inactive”.

On to FCEGYFWCVI, for which the amyloid nucleation score entry was “inactive”.

In the case of FCFYICGLGFY, the amyloid nucleation score result is “inactive”.

As to FCGAYLVVIAEFL, the amyloid nucleation score result is “inactive”.

On to FCHLLVMLFYKGPKVFCIVM, for which the amyloid nucleation score result is “inactive”.

For the substance FCHVRMLAISTIYGSSVEVF, the amyloid nucleation score result is “inactive”.

As to FCIEPR, the amyloid nucleation score entry is “inactive”.

Regarding FCQSFWLLQLARMPCYVESQ, the amyloid nucleation score result is “inactive”.

As to FCRLWVRVSSDTFYYSFSGN, the amyloid nucleation score stood at 0.537 ± 0.47.

FCRSVLTLKKKLMFYTLRHC: the amyloid nucleation score result is “inactive”.

In turn, FCSFEVRGCY yielded an amyloid nucleation score of 0.346 ± 0.2.

With FCSVIFLISIYCTRFSLVYD, the amyloid nucleation score result was “inactive”.

Consider FCVPKCYSHWYLVFS, for which the amyloid nucleation score is 1.03 ± 0.12.

For FDACRFHVHLRYLFNNRYMG, the amyloid nucleation score result is “inactive”.

FDAFM: the amyloid nucleation score entry was “inactive”.

Take FDDATEKFIS: the amyloid nucleation score entry was “inactive”.

Turning to FDFASFGKWVVVRFKCKTFT, the amyloid nucleation score entry is “inactive”.

FDFTGYLKCLKCTSSCTMVL: the amyloid nucleation score entry is “inactive”.

For FDHPFICIKPRATRREAWLT, the amyloid nucleation score entry was “inactive”.

Consider FDLETSLL, for which the amyloid nucleation score entry is “inactive”.

In the case of FDLVNWYFQRNIVLRQSCCY, the amyloid nucleation score entry is “inactive”.

Take FDMTL: the amyloid nucleation score entry was “inactive”.

In the case of FDPYFVFHNWVLYWFRVFTF, the amyloid nucleation score entry was “inactive”.

Regarding FDSKVWSAQRVRSTRLLSLG, the amyloid nucleation score result is “inactive”.

On to FDTWFLRFRTNDVYLKVFFY, for which the amyloid nucleation score entry is “inactive”.

Turning to FDVKDWPSNNWRSLGNSRVC, the amyloid nucleation score entry was “inactive”.

Take FDVRDRSRIGLSMTITWMKI: the amyloid nucleation score result was “inactive”.

Regarding FDYSIGL, the amyloid nucleation score entry was “inactive”.

As to FEERHCGANWFGSYVIGRWR, the amyloid nucleation score turned out to be 0.798 ± 0.21.

Turning to FEFYTMWSIWARVLFPLKIY, the amyloid nucleation score result is “inactive”.

On to FELTVLSSMVAIFL, for which the amyloid nucleation score was 1.61 ± 0.089.

In the case of FENSLFYTKVMDPCSFVWYW, the amyloid nucleation score result is “inactive”.

Consider FESSGAGRFRSIWYGYMRVF, for which the amyloid nucleation score result was “inactive”.
